T1: recombinant human Dtk-Fc protein (R and D Systems, cat N° 859-DK) (human, UniProt Q06418 41-428)
T1 construct: Bought construct; also called rhDtk-Fc; rhDtk; not shown: Fc portion of the bought fusion
T1 sequence (looked up): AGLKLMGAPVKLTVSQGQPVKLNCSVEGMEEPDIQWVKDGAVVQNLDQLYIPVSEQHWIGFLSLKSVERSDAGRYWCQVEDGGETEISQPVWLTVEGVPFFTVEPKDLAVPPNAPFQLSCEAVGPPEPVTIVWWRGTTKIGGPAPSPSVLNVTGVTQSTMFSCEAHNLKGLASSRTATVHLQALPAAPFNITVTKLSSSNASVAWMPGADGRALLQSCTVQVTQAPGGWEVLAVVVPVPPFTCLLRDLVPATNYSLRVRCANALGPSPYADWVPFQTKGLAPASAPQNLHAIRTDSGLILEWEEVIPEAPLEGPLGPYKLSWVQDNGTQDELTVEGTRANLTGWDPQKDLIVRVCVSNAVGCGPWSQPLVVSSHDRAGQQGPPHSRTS

T2: recombinant human Mer-Fc protein (R and D Systems, cat N° 891-MR) (human, UniProt Q12866 26-499, limits assumed)
T2 construct: Bought construct; also called rhMer-Fc; rh-Mer-Fc; not shown: Fc portion of the bought fusion
T2 sequence (looked up): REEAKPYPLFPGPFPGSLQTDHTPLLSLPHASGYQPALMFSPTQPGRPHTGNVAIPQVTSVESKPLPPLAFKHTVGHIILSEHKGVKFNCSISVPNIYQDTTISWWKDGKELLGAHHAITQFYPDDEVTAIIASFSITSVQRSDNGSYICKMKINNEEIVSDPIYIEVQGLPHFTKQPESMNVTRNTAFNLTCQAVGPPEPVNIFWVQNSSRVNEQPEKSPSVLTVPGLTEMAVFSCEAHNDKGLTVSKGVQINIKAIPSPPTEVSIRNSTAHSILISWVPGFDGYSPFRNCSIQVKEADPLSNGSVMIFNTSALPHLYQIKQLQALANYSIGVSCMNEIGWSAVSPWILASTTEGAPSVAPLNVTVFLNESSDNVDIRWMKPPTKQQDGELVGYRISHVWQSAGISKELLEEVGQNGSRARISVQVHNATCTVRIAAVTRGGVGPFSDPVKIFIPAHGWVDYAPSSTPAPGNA

T3: recombinant mouse Axl-Fc protein (R and D Systems, cat N° 854-AX/CF) (mouse, UniProt Q00993 19-445)
T3 construct: extracellular domain; Bought construct; also called rmAxl-Fc; murine Axl ECD domain; not shown: Fc portion of the bought fusion (detected by anti-human IgG Fc)
T3 sequence (looked up): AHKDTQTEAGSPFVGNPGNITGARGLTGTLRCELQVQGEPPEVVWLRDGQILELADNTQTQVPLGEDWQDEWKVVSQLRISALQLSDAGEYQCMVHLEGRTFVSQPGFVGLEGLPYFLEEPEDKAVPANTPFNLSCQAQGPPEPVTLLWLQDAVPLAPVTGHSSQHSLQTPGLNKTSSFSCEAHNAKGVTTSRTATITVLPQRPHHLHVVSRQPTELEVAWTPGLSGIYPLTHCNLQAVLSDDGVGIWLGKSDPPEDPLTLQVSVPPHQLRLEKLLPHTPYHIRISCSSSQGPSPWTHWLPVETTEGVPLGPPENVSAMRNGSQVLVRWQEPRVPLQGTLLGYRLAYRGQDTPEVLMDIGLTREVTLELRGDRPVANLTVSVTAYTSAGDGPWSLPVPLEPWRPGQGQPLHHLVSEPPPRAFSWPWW


Experiments:
[1] = target: T1, recombinant human Dtk-Fc protein (R and …); assay: ELISA on coated protein
Description: (§1) Briefly, the recombinant human Axl-Fc (R and D systems, cat N° 154AL/CF), rhDtk (R and D Systems, cat N° 859-DK) or rh-Mer-Fc (R and D Systems, cat N° 891-MR) proteins were coated overnight at 4° C. to Immulon II 96-well plates and, after a 1 h blocking step with a 0.5% gelatine solution, 110D7, 1003A2, 1024G11 purified antibodies were added, respectively, for an additional 1 h at 37° C. at starting concentration of 5 μg/ml (3.33 10⁻⁸M). Then ½ serial dilutions were done over 12 columns. Then plates were washed and a goat anti-mouse (Jackson) specific IgG-HRP was added for 1 h at 37° C. Reaction development was performed using the TMB substrate solution. The commercial anti-Axl Mab 154 antibody is also used in parallel (data not shown). Coating controls are performed in presence of a goat anti-human IgG Fc polyclonal serum labelled with HRP (Jackson, ref 109-035-098) and/or in presence of a HRP-coupled anti-Histidine antibody (R and D Systems, ref: MAB050H). No non specific binding is observed in absence of primary antibody (diluant). Results for the 110D7 are represented in FIGS. 2A, 2B and 2C, respectively. Results for the 1003A2 are represented in FIGS. 2D, 2E and 2F, respectively. Results for the 1024G11 are represented in FIGS. 2G, 2H and 2I, respectively.

[2] = target: T2, recombinant human Mer-Fc protein (R and …); assay: ELISA on coated protein
Description: as §1

[3] = target: T3, recombinant mouse Axl-Fc protein (R and …); assay: ELISA on coated rmAxl-Fc
Description: Briefly, the recombinant mouse Axl-Fc (R and D Systems, cat N° 854-AX/CF) proteins were coated overnight at 4° C. to Immulon II 96-well plates and, after a 1 h blocking step with a 0.5% gelatine solution, the 110D7, 1003A2, 1024G11, purified antibodies, respectively, were added for an additional 1 h at 37° C. at starting concentration of 5 μg/ml (3.33 10⁻⁸ M). Then ½ serial dilutions were done over 12 columns. Then plates were washed and a goat anti-mouse (Jackson) specific IgG HRP was added for 1 h at 37° C. Reaction development was performed using the TMB substrate solution. The commercial mouse anti-Axl Mab 154 antibody is also used in parallel. Coating controls are performed in presence of a goat anti-human IgG Fc polyclonal serum coupled with HRP (Jackson, ref 109-035-098) and in presence of a HRP-coupled anti-Histidine antibody (R and D Systems, ref: MAB050H). No specific binding is observed in absence of primary antibody (diluant).

Row | Binder | binding result [1] | binding result [2] | binding result [3]
1 | 110D7 anti-Axl monoclonal antibody (antibody, V domains shown, Murine monoclonal antibody purified from a hybridoma; a mIgG1 isotype control (9G4) is used beside it; also called m110D7; monoclonal antibody 110D7 derived from the hybridoma I-3959) VH: EVKLVESGGGLVQPGGSLKLSCATSGFTFSDYYMYWVRQTPEKRLEWVAYISNGGGSTYYPDTVKGRFTMSRDNAKNTLYLQMSRLKSEDTAMYYCARLSFYAMDYWGQGTSVTVSS VL: DIVMTQSHKFMSTSVGDRVSITCKASQDVTTAVAWYQQKPGQSPKLLIYWASTRHTGVPDRFTGSGSGTDYTLTISSVQAEDLALYYCQQHYRIPFTFGSGTKLEIK | no binding | no binding | –
2 | 1003A2 anti-Axl monoclonal antibody (antibody, V domains shown, Murine monoclonal antibody purified from a hybridoma; a mIgG1 isotype control (9G4) is used beside it; also called monoclonal antibody 1003A2 derived from the hybridoma I-4499) VH: EVKLVESGGGLVQPGGSLKLSCAASGFTFNSYSMSWVRQTPEKRLEWVAYISNGGGRTYYPDTIKGRFTLSRDNDRNTLYLQMSSLKSEDTAMYYCARGTTESYYALDYWGQGTSVTVSS VL: DIVMTQSHKFMSTSLGDRISITCKASQDVITAVAWYQQKPGQSPKLLIYWASTRHTGVPDRFTGSGSGTDYNLTISSVQAEDLALYYCQQHFSTPLTFGAGTKLELK | no binding | no binding | no binding
3 | 1024G11 anti-Axl monoclonal antibody (antibody, V domains shown, Murine monoclonal antibody purified from a hybridoma; a mIgG1 isotype control (9G4) is used beside it; also called monoclonal antibody 1024G11 derived from the hybridoma I-4501) VH: EVKLVESGGGLVQPGGSLNLSCAASGFTFSSYSMSWVRQTPEKRLEWVAFISNGGGRTYYPDTVKGRFTFSRDNARNTLYLQMSSLNSEDTAMYFCARGTTESYYAMDYWGQGTSVTVSS VL: DIVMTQSHKFMSTSVGDRVSITCKASQDVITAVAWYQQKPGQSPKLLIYWASTRHTGVPDRFTGSGSGTDYTLTISSVQAEDLALYFCQQHLSTPLTFGAGTKLELK | no binding | no binding | no binding
